Reference: publication PMC6309520
Where two headings read alike, the source gives them in different places.

Legend:
Test in all cases: Michaelis-Menten kinetics
[1] = substrate: Nc1ncnc2c1ncn2[C@@H]1O[C@H](COP(=O)(O)OP(=O)(O)OC[C@H]2O[C@H](Oc3ccc4c(C(F)(F)F)cc(=O)oc4c3)[C@H](O)[C@@H]2O)[C@@H](O)[C@H]1O; assay type: biochemical, Homo sapiens
[2] = substrate: Nc1ncnc2c1ncn2[C@@H]1O[C@H](COP(=O)(O)OP(=O)(O)OC[C@H]2O[C@H](Oc3ccc([N+](=O)[O-])cc3)[C@H](O)[C@@H]2O)[C@@H](O)[C@H]1O; assay type: biochemical, Homo sapiens; details: Mg2+ ([…] MgCl2 in assay buffer)
[3] = substrate: Nc1ncnc2c1ncn2[C@@H]1O[C@H](COP(=O)(O)OP(=O)(O)OC[C@H]2O[C@H](Oc3ccc([N+](=O)[O-])cc3)[C@H](O)[C@@H]2O)[C@@H](O)[C@H]1O; assay type: biochemical, Tetrahymena thermophila
[4] = substrate: Nc1ncnc2c1ncn2[C@@H]1O[C@H](COP(=O)(O)OP(=O)(O)OC[C@H]2O[C@H](Oc3ccc4c(C(F)(F)F)cc(=O)oc4c3)[C@H](O)[C@@H]2O)[C@@H](O)[C@H]1O; assay type: biochemical, Tetrahymena thermophila

B1: PARG (poly(ADP-ribose) glycohydrolase) (Homo sapiens) (protein)
chain: MNAGPGCEPCTKRPRWGAATTSPAASDARSFPSRQRRVLDPKDAHVQFRVPPSSPACVPGRAGQHRGSATSLVFKQKTITSWMDTKGIKTAESESLDSKENNNTRIESMMSSVQKDNFYQHNVEKLENVSQLSLDKSPTEKSTQYLNQHQTAAMCKWQNEGKHTEQLLESEPQTVTLVPEQFSNANIDRSPQNDDHSDTDSEENRDNQQFLTTVKLANAKQTTEDEQAREAKSHQKCSKSCDPGEDCASCQQDEIDVVPESPLSDVGSEDVGTGPKNDNKLTRQESCLGNSPPFEKESEPESPMDVDNSKNSCQDSEADEETSPGFDEQEDGSSSQTANKPSRFQARDADIEFRKRYSTKGGEVRLHFQFEGGESRTGMNDLNAKLPGNISSLNVECRNSKQHGKKDSKITDHFMRLPKAEDRRKEQWETKHQRTERKIPKYVPPHLSPDKKWLGTPIEEMRRMPRCGIRLPLLRPSANHTVTIRVDLLRAGEVPKPFPTHYKDLWDNKHVKMPCSEQNLYPVEDENGERTAGSRWELIQTALLNKFTRPQNLKDAILKYNVAYSKKWDFTALIDFWDKVLEEAEAQHLYQSILPDMVKIALCLPNICTQPIPLLKQKMNHSITMSQEQIASLLANAFFCTFPRRNAKMKSEYSSYPDINFNRLFEGRSSRKPEKLKTLFCYFRRVTEKKPTGLVTFTRQSLEDFPEWERCEKPLTRLHVTYEGTIEENGQGMLQVDFANRFVGGGVTSAGLVQEEIRFLINPELIISRLFTEVLDHNECLIITGTEQYSEYTGYAETYRWSRSHEDGSERDDWQRRCTEIVAIDALHFRRYLDQFVPEKMRRELNKAYCGFLRPGVSSENLSAVATGNWGCGAFGGDARLKALIQILAAAAAERDVVYFTFGDSELMRDIYSMHIFLTERKLTVGDVYKLLLRYYNEECRNCSTPGPDIKLYPFIYHAVESCAETADHSGQRTGT
[1]
  Km: 66.2 ± 15 µM
  Vmax: 0.84 µmol/min/mg

B2: ARH3 (ADP-ribosyl hydrolase 3, ADPRHL2) (Homo sapiens) (protein)
chain: MAAAAMAAAAGGGAGAARSLSRFRGCLAGALLGDCVGSFYEAHDTVDLTSVLRHVQSLEPDPGTPGSERTEALYYTDDTAMARALVQSLLAKEAFDEVDMAHRFAQEYKKDPDRGYGAGVVTVFKKLLNPKCRDVFEPARAQFNGKGSYGNGGAMRVAGISLAYSSVQDVQKFARLSAQLTHASSLGYNGAILQALAVHLALQGESSSEHFLKQLLGHMEDLEGDAQSVLDARELGMEERPYSSRLKKIGELLDQASVTREEVVSELGNGIAAFESVPTAIYCFLRCMEPDPEIPSAFNSLQRTLIYSISLGGDTDTIATMAGAIAGAYYGMDQVPESWQQSCEGYEETDILAQSLHRVFQKS
[2]
  Km: 3.2 ± 0.6 µM
  Vmax: 1.7 µmol/min/mg
[1]; Mg2+ ([…] MgCl2 in assay buffer)
  Km: 6.3 ± 0.2 µM
  Vmax: 1.61 µmol/min/mg

B3: ttPARG (T. thermophila PARG) (Tetrahymena thermophila) (protein)
chain: MIEAEKQENKKIQDYQFPLPQKNSELWIIQKKTLQDLSSGKQKLDSFQSLESILEILRDSKNQNDEKYFNLKAVFEQLDKEEQTYFLEQFIPKICQLVLKIKKKQLKNQIPKESKIYEAAFSREEISYYVSCMFLCILKDQDRKIYKDFRLIYLKDLVQQINIRRQEKIKCFYEYLKQALDFSEKESKEVVIFQRINCGQLEDYENWVDKLKAIKLKNVQLTDDKLIEDFPGTLQVDFANCDIGGGILGNGLVQEEIRFCVCPEMLVSLLVFDQSMEANEVIIMKGIKQYSDYQGYSNSFRFVKMGNSKIQKQKRNNPQTILAIDALCFNSSDNQFSEVNVSRELNKSYMGFKQEDQLKTISTGKWGCGAFLGVFDLKFAIQWIASSRSNKKMIICTFQDEQTTKQIQQVFDLYKQKNASIFLKLVMDYPNSKYMEDYTLLEYLIELGKEKATSKNS
[3]
  Km: 210 ± 10 µM
  Vmax: 16.9 µmol/min/mg
[4]
  Km: 210 ± 13 µM
  Vmax: 28.6 µmol/min/mg
